Data taken from patent US20130079246A1 (ADDEX PHARMA SA, priority 2010, published 2013).

Legend:
[1] = target: T1, chimeric TNFR1-PDGFR receptor (full length human TNFR1 fused to cytoplasmic domain of mouse PDGFR) (Homo sapiens, UniProt P19438); assay: Ca2+-dependent aequorin luminescence in HEK293T Aequorin cells expressing the chimeric receptor (HTS setting); assay type: cell-based
T1 construct: 1, 2; full length; cytoplasmic domain (cp); expressed in transfected cells; host or cells: HEK293T cells stably expressing apoaequorin
T1 sequence (P19438 with tags, fused parts or gaps): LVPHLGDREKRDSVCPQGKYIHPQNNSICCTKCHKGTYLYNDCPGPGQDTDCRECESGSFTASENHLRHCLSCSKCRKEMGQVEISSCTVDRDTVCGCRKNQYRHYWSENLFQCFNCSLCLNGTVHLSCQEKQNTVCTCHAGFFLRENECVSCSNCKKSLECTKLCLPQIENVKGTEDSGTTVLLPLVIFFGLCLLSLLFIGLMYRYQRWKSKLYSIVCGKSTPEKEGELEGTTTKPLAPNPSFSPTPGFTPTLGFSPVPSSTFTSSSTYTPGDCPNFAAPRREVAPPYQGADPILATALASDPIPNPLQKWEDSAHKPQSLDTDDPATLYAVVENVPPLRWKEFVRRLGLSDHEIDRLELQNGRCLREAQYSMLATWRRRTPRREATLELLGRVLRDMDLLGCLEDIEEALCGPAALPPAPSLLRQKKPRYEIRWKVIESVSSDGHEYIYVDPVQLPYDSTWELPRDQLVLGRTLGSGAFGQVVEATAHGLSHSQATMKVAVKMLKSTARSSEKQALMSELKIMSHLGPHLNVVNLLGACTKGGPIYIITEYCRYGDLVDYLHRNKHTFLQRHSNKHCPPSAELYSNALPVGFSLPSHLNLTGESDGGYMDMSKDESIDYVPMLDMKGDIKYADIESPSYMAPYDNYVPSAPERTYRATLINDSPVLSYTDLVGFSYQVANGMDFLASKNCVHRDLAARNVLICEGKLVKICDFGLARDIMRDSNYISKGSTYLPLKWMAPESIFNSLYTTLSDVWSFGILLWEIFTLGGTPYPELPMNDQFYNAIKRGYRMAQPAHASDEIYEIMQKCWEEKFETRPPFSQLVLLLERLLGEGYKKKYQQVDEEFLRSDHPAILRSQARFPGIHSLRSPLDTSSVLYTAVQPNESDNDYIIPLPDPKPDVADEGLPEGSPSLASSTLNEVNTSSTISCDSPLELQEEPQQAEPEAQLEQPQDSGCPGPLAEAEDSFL
Text: HEK293T stably expressing Apoaequorin were generated using standard cloning techniques. The HEK293T cells expressing Apoaequorin (“Aequorin cells”) were then further transfected as described in Examples 1-3 so as to express the chimeric receptors 1-3 as listed in Table 3.
In particular, the HEK293T Apoaequorin cells were transfected with pcDNA3.1 hygro TNFR1-fl-PDGFR-cd vector as prepared in Example 1 using Optifect™ Transfection Reagent (Invitrogen), according to the manufacturer's protocol.
HEK293T cells expressing Apoaequorin and the chimeric receptor (Example 4) were plated in 384-well plates at a concentration of 12500 cells per well in a final volume of 50 μl. […] A FDSS7000 reader from Hamamatsu (Japan) was used to examine intracellular calcium levels. […] The instrument features include detection with a camera of fluorescence or luminescence and automatically converts fluorescence or luminescence signals into numeric data. This digital data is then used to determine the concentration of calcium inside the analyzed cells. The information is automatically analyzed in terms of a positive, negative or null effect of each test compound being examined. This system allowed differences between untreated and treated cells to be measured, for example by measuring the calcium flux in cells. […]

[2] = target: chimeric receptor: full length human TNFR1 fused to the cytoplasmic tyrosine kinase domain of mouse PDGFR (human TNFR1; mouse PDGFR); assay: cell-based or functional assay
Chain of chimeric receptor: full length human TNFR1 fused to the cytoplasmic tyrosine kinase domain of mouse PDGFR (human TNFR1; mouse PDGFR) (chain, as listed by the source mutant limits assumed): as the sequence (P19438 with tags, fused parts or gaps) above

Chain of TNF (ligand) (P01375 77-233): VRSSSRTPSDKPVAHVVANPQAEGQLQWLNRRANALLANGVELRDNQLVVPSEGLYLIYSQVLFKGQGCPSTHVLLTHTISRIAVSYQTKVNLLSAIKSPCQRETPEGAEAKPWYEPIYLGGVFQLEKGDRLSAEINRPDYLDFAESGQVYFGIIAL

Inhibitory efficacy, dose response compared with cells expressing full-length PDGFR ([1]; inhibitor 3 μM to 0.45 nM, cells exposed to TNF, FIG. 6)	EC50, Ca2+-dependent aequorin luminescence, AUC over 10 minutes [2]	EC50, Ca2+-dependent aequorin luminescence, Max-Min [2]	EC80, Ca2+-dependent aequorin luminescence, AUC over 10 minutes [2]	EC80, Ca2+-dependent aequorin luminescence, Max-Min [2]	Compound	Effect on TNF-dependent intracellular calcium increase ([1]; 1 μM inhibitor, 3 ng/ml TNF, FIG. 5b)
equal inhibitory efficacy	–	–	–	–	COc1cc2ncnc(N3CCN(C(=O)Nc4ccc(Oc5ccccc5)cc4)CC3)c2cc1OC [PDGFR Tyrosine Kinase Inhibitor III, 4-(6,7-Dimethoxy-4-quinazolinyl)-N-(4-phenoxyphenyl)-1-piperazinecarboxamide]	prevented the detection of intracellular calcium increase
–	1.27 ng/mL	1.06 ng/mL	2.9 ng/mL	3 ng/mL	TNF (ligand)	–
